In article PMC10709064, “The leucine zipper domain of the transcriptional repressor Opi1 underlies a signal transduction mechanism regulating lipid synthesis” (The Journal of Biological Chemistry, 2023):
Positions count from the first letter of the chain named. Names may count otherwise.

T1: MBP-N-Opi1^3L (L146A, L153S, L160A) (S. cerevisiae, UniProt P21957 1-190, L146A | L153S | L160A)
T1 construct: Opi1, S. cerevisiae, N terminus from aa1 to aa190 (N-Opi1) with the 3L mutations L146A L153S L160A; pMAL-c expression vector; not shown: MBP, N-terminal, kept
T1 sequence (looked up): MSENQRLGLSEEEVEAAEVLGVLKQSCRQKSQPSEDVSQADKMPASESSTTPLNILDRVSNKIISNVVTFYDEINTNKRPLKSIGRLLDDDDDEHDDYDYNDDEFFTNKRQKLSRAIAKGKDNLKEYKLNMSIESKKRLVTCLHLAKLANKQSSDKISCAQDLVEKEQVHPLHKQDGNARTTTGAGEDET

T2: MBP-N-Opi1^N150D (S. cerevisiae, UniProt P21957 1-190, N150D)
T2 construct: Opi1, S. cerevisiae, N terminus from aa1 to aa190 (N-Opi1) with N150D; pMAL-c expression vector; amplified from mutant OPI1 DNA template; source: for SEC further run on Superdex 200 Increase; not shown: MBP, N-terminal, kept
T2 sequence (looked up): T1 sequence (looked up) with A146L, N150D, S153L, A160L

T3: GST-N-Opi1^3L (L146A, L153S, L160A) (S. cerevisiae, UniProt P21957 1-190, L146A | L153S | L160A)
T3 construct: Opi1, S. cerevisiae, N terminus from aa1 to aa190 (N-Opi1) with the 3L mutations L146A L153S L160A; pGEX-4T-1 expression vector; not shown: GST, N-terminal, kept
T3 sequence (looked up): T1 sequence (looked up)

T4: GST-N-Opi1^N150D (S. cerevisiae, UniProt P21957 1-190, N150D)
T4 construct: Opi1, S. cerevisiae, N terminus from aa1 to aa190 (N-Opi1) with N150D; pGEX-4T-1 expression vector; not shown: GST, N-terminal, kept
T4 sequence (looked up): T1 sequence (looked up) with A146L, N150D, S153L, A160L

T5: GST-N-Opi1^WT (glutathione-S-transferase fused to Opi1 aa1-190) (S. cerevisiae, UniProt P21957 1-190)
T5 construct: Opi1, S. cerevisiae, N terminus from aa1 to aa190 (N-Opi1), holds the leucine zipper (aa 139-166); pGEX-4T-1 expression vector; also called N-Opi1^1-190; not shown: GST, N-terminal, kept
T5 sequence (looked up): T1 sequence (looked up) with A146L, S153L, A160L

B1: MBP-N-Opi1^WT (maltose-binding protein fused to the N-terminal Opi1^1-190 polypeptide) (domain or fragment, S. cerevisiae, UniProt P21957 1-190, looked up)
chain: T1 sequence (looked up) with A146L, S153L, A160L
notes: Opi1, S. cerevisiae, N terminus from aa1 to aa190 (N-Opi1), holds the leucine zipper (aa 139-166); pMAL-c expression vector; also called N-Opi1^1-190; source: for SEC further run on Superdex 200 Increase; not shown: MBP, N-terminal, kept
B2: GST-C-Opi1^WT (glutathione-S-transferase fused to Opi1 aa291-404) (domain or fragment, S. cerevisiae, UniProt P21957 291-404, looked up)
chain: QQQQQQQQLLQQQLLQQQQQKRNKDGDDSASPSSSVTANGKVLILAKESLEMVRNVMGVVDSTLGKAEEWVKQKQEVKEMIRERFLQQQQQYRQQQQKDGNYVKPSQDNVDSKD
notes: Opi1, S. cerevisiae, C terminus from aa291 to aa404 (C-Opi1), holds the AID (aa 321-379); pGEX-4T-1 expression vector; also called C-Opi1^291-404; Opi1^291-404; not shown: GST, N-terminal, kept
B3: MBP-C-Opi1^WT (maltose-binding protein fused to Opi1 aa291-404) (domain or fragment, S. cerevisiae, UniProt P21957 291-404, looked up)
chain: B2 chain
notes: Opi1, S. cerevisiae, C terminus from aa291 to aa404 (C-Opi1), holds the AID (aa 321-379); pMAL-c expression vector; also called C-Opi1^291-404; Opi1^291-404; not shown: MBP, N-terminal, kept
B4: GST-C-Opi1^S339F (domain or fragment, S. cerevisiae, UniProt P21957 291-404, looked up)
chain: B2 chain with S49F
notes: Opi1, S. cerevisiae, C terminus from aa291 to aa404 (C-Opi1) with S339F; pGEX-4T-1 expression vector; loss of function mutation known from earlier genetic work; not shown: GST, N-terminal, kept
B5: GST-C-Opi1^V343E (domain or fragment, S. cerevisiae, UniProt P21957 291-404, looked up)
chain: B2 chain with V53E
notes: Opi1, S. cerevisiae, C terminus from aa291 to aa404 (C-Opi1) with V343E; pGEX-4T-1 expression vector; loss of function mutation known from earlier genetic work; not shown: GST, N-terminal, kept

Assays:
[1] = molecular target: the molecule itself; experiment: SEC; 0.5 mg of affinity-purified MBP fusion on Superdex 200 Increase 10/300 GL, 20 mM Tris-HCl pH 7.4, 150 mM NaCl, 0.5 ml/min; molecular weights estimated from calibration markers
[2] = molecular target: B1; experiment: pull-down; as the pull-down with alternate tags, but binding reactions carried out at decreasing reactant concentrations (relative volume of the binding reaction varied); prey detected by Western blot; details: both partners purified
[3] = molecular target: T1, MBP-N-Opi1^3L (L146A, L153S, L160A); experiment: as above; details: both partners purified
MBP-N-Opi1^N150D = molecular target: T2, MBP-N-Opi1^N150D; experiment: as above; details: both partners purified
[4] = molecular target: T3, GST-N-Opi1^3L (L146A, L153S, L160A); experiment: as above; details: both partners purified
GST-N-Opi1^N150D = molecular target: T4, GST-N-Opi1^N150D; experiment: as above; details: both partners purified
[5] = molecular target: T5, GST-N-Opi1^WT …; experiment: pull-down; around 0.5 ug bait on amylose resin or glutathione-Sepharose with 1.5 ug prey of the alternate tag in 100 ul binding buffer (20 mM Tris-HCl pH 8, 150 mM NaCl, 1 mM EDTA, 1 mM DTT, 20% glycerol, 0.05% Triton X-100) with 50 ug/ml BSA, 2 h at 4 C; bait eluted with its ligand, prey detected by Western blot against MBP or GST; details: both partners purified

In the case of B1, the “stoichiometry N” value [1] is reported as about 2.

B2: binds [2]; binds [3]; binds (MBP-N-Opi1^N150D).

B3: binds [4]; binds (GST-N-Opi1^N150D); binds [5].

B4: binds [2].

B5: binds [2].
